A word on the Kd: it is a measure of binding affinity in units of concentration. As usually defined, the koff is a measure of how fast the partners let go of each other. A lower koff goes with slow dissociation. Broadly, the kon is the rate constant with which the complex forms. Read a high kon as faster complex formation.

Assay [1] addresses T1, canine FcRn (soluble large subunit p51 isoform X2 with 6xHis-tag, co-expressed with canine … (canine)).
T1 construct: Heterodimer made by co-expression in CHO cells, purified on HISTRAP FF, >95% pure by SEC; Both entries hold a 19-residue signal peptide at the N-terminus that should be removed (residues 1-19); also called FcRn complex
T1 chain: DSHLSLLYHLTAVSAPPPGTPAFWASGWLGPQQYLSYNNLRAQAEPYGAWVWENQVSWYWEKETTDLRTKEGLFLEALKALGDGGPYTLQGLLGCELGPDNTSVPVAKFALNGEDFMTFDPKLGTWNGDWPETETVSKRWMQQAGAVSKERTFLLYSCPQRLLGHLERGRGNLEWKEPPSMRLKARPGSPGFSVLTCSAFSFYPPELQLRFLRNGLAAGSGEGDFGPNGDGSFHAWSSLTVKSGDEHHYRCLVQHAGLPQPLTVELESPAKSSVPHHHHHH
T1 b2m: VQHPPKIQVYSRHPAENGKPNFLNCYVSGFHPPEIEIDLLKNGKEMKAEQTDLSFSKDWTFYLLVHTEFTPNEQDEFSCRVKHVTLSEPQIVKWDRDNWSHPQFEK
The assay is described as follows: SPR, IgG on protein L chip, FcRn in flow, pH 5.9, 1:1 fit. Here is the method:
(§1) The canine FcRn binding experiments at pH 5.9 and pH 7.4 were completed on a BIACORE™ T200 instrument. A Series S Protein L Sensor chip (Cytiva, Cat. No. BR29205137) was used to capture the antibody variants via the kappa (κ) light chain. The canine variants were captured onto the protein L chip at a flow rate of 10 μL/min for 60 seconds. Approximately 250 RUs of the variants were captured. For the low pH binding condition, 1×PBX-P+ (Cytiva, Cat. No. 28995084) was adjusted to pH 5.9. The canine FcRn was flowed over the sensor chip at 30 μL/min for 120 seconds contact time and 600 seconds dissociation time. Regeneration of the flow cells was completed by flowing over 10 mM glycine, pH 1.7 at 30 μL/min for 30 seconds. The data were evaluated by the BIACORE™ T200 Evaluation software (version 3.2.1) by fitting to a 1:1 kinetic interaction model.
Background: SPR reads the build-up and loss of mass on a sensor chip optically.

Assay [2] concerns the target T1, canine FcRn (soluble large subunit p51 …). As to the kind of experiment: SPR, IgG on protein L chip, FcRn in flow, pH 7.4, steady state fit. Here is the method: as §1
A subset of the Fc variants was tested for binding to canine FcRn at pH 7.4. For these experiments, 1×PBX-P+ (Cytiva, Cat. No. 28995084) was adjusted to pH 7.4. […] In addition, the pH 7.4 data were evaluated by the BIACORE™ T200 Evaluation software (version 3.2.1) by fitting to steady state affinity model. The kinetic binding data for the variants at pH 7.4 along with the binding data at pH 5.9 for these variants are shown in Table 7 below.

Assay [3] has the same target. As to the kind of experiment: SPR, IgG on protein L chip, FcRn in flow, pH 5.9, kinetic data. Here is the method: as §1

Where a chain is given by its changes, count along the chain named. Names and notes keep the numbering of the source.

B1: IgG with canine IgGB Fc variant L252M (antibody)
heavy: EVQLVESGGDLVAPSQSLSITCTVSGMSLTSNSISWVRQPPGRGLEWLGTIWSNGGTDYTDAVKGRFTISRDNAKNTVYLQMNSLRAEDTAMYYCAQIYYYDADYLHWYFDFWGQGTLVTVSSASTTAPSVFPLAPSCGSTSGSTVALACLVSGYFPEPVTVSWNSGSLTSGVHTFPSVLQSSGLYSLSSMVTVPSSRWPSETFTCNVAHPASKTKVDKPVPKRENGRVPRPPDCPKCPAPEAAGGPSVFIFPPKPKDTLMIARTPEVTCVVVDLDPEDPEVQISWFVDGKQMQTAKTQPREEQFNGTYRVVSVLPIGHQDWLKGKQFTCKVNNKALPSPIERTISKARGQAHQPSVYVLPPSREELSKNTVSLTCLIKDFFPPDIDVEWQSNGQQEPESKYRTTPPQLDEDGSYFLYSKLSVDKSRWQRGDTFICAVMHEALHNHYTQESLSHSPG
light: EIVMTQSPASLSASQEEKVTITCRASEGISNNLAWYQQKPGQAPKLLIHATSSLQTGVPSRFSGSGSGTDFTLTISSLQPEDFATYYCQQGYQFPLTFGQGTKVEIKRNDAQPAVYLFQPSPDQLHTGSASVVCLLNSFYPKDINVKWKVDGVIQDTGIQESVTEQDKDSTYSLSSTLTMSSTEYLSHELYSCEITHKSLPSTLIKSFQRSECQRVD
notes: Full chains; canine IgGB constant domain with MALA mutations; variable domains of WO 2023/97275
For B1, in assay [1], the affinity, expressed as Kd, was 40.7 nM; the off-rate constant (koff) came out at 0.00335 s⁻¹; the kon was found to be 82400 M⁻¹ s⁻¹.

B2: IgG with canine IgGB Fc variant L252Y, T286W (antibody)
heavy: B1 heavy with M261Y, T295W
light: B1 light
notes: as for B1
Consider B2, for which, in assay [1], binding was characterised by a dissociation constant (Kd) of 9.82 nM, the koff is 0.0203 s⁻¹ and the on-rate constant (kon) came to 2.07e+06 M⁻¹ s⁻¹.

B3: IgG with canine IgGB Fc variant L252Y, A426H (antibody)
heavy: B1 heavy with M261Y, A437H
light: B1 light
notes: as for B1
B3: in assay [1], the Kd is 3.76 nM, the koff came out at 0.00598 s⁻¹ and the kon is 1.59e+06 M⁻¹ s⁻¹. The molecule also had a Kd in assay [2] of 388 nM. Moreover, in assay [3], the dissociation constant (Kd) was 3.76 nM, the dissociation rate constant (koff) is 0.00598 s⁻¹ and the kon came to 1.59e+06 M⁻¹ s⁻¹.

B4: IgG with canine IgGB Fc variant N434H (antibody)
heavy: B1 heavy with M261L, N445H
light: B1 light
notes: as for B1
In assay [1], B4 registered a dissociation constant (Kd) of 55.3 nM, a koff of 0.097 s⁻¹ and a kon of 1.75e+06 M⁻¹ s⁻¹. The molecule also gave a dissociation constant Kd in assay [2] of 5400 nM. Further, in assay [3], binding was characterised by a dissociation constant (Kd) of 55.3 nM, the off-rate (koff) was determined as 0.097 s⁻¹ and the on-rate (kon) came out at 1.75e+06 M⁻¹ s⁻¹.

B5: IgG with canine IgGB Fc variant L252Y (antibody)
heavy: B1 heavy with M261Y
light: B1 light
notes: as for B1
On to B5, for which the Kd turned out to be 43.5 nM in assay [1], 4440 nM in assay [2] and 43.5 nM in assay [3]. Further, the koff in assay [1] and in assay [3] was 0.0491 s⁻¹ in each case. In addition, the kon in assay [1] and in assay [3] was 1.13e+06 M⁻¹ s⁻¹ throughout.

B6: IgG with canine IgGB Fc variant N434H, A426Y (antibody)
heavy: B1 heavy with M261L, A437Y, N445H
light: B1 light
notes: as for B1
Turning to B6, the equilibrium dissociation constant (Kd) was found to be 10.9 nM in assay [1], 1050 nM in assay [2] and 10.9 nM in assay [3]. Also, the dissociation rate constant (koff) in assay [1] and in assay [3] was 0.0252 s⁻¹ each time. The kon in assay [1] and in assay [3] was 2.31e+06 M⁻¹ s⁻¹ throughout.

B7: IgG with canine IgGB Fc variant L252Y, T286L (antibody)
heavy: B1 heavy with M261Y, T295L
light: B1 light
notes: as for B1
With B7, the Kd in assay [1] amounted to 18.2 nM; in assay [2], 2620 nM; in assay [3], 18.2 nM. Besides, the koff in assay [1] and in assay [3] was 0.0237 s⁻¹ in each case. Besides, the kon in assay [1] and in assay [3] was 1.31e+06 M⁻¹ s⁻¹ in each case.

B8: IgG with canine IgGB Fc variant N434H, A426L (antibody)
heavy: B1 heavy with M261L, A437L, N445H
light: B1 light
notes: as for B1
In assay [1], B8 displayed a Kd of 18.9 nM, a dissociation rate constant (koff) of 0.0492 s⁻¹ and a kon of 2.61e+06 M⁻¹ s⁻¹. In addition, in assay [2], binding was characterised by a dissociation constant (Kd) of 2030 nM. In assay [3], this molecule displayed a Kd of 18.9 nM, a koff of 0.0492 s⁻¹ and a kon of 2.61e+06 M⁻¹ s⁻¹.

B9: IgG with canine IgGB Fc variant L252M, A426H (antibody)
heavy: B1 heavy with A437H
light: B1 light
notes: as for B1
In assay [1], B9 gave a Kd of 37 nM, a koff of 0.065 s⁻¹ and an on-rate (kon) of 1.76e+06 M⁻¹ s⁻¹.

B10: IgG with canine IgGB Fc variant L252M, T286Y (antibody)
heavy: B1 heavy with T295Y
light: B1 light
notes: as for B1
In assay [1], B10 yielded a Kd of 66.6 nM, a koff of 0.0822 s⁻¹ and an association rate constant (kon) of 1.24e+06 M⁻¹ s⁻¹.

B11: IgG with canine IgGB Fc variant L252M, T286W (antibody)
heavy: B1 heavy with T295W
light: B1 light
notes: as for B1
B11: in assay [1], the dissociation constant Kd was found to be 64.5 nM, the dissociation rate constant (koff) was found to be 0.0912 s⁻¹ and the kon was 1.42e+06 M⁻¹ s⁻¹.

B12: IgG with canine IgGB Fc variant L252M, T286F (antibody)
heavy: B1 heavy with T295F
light: B1 light
notes: as for B1
In assay [1], B12 gave a dissociation constant Kd of 71.8 nM, an off-rate (koff) of 0.0937 s⁻¹ and an on-rate (kon) of 1.31e+06 M⁻¹ s⁻¹.

B13: IgG with canine IgGB Fc variant L252Y, T286F (antibody)
heavy: B1 heavy with M261Y, T295F
light: B1 light
notes: as for B1
In assay [1], B13 had a Kd of 10.8 nM, a dissociation rate constant (koff) of 0.0193 s⁻¹ and a kon of 1.79e+06 M⁻¹ s⁻¹.

B14: IgG with canine IgGB Fc variant L252Y, T286Y (antibody)
heavy: B1 heavy with M261Y, T295Y
light: B1 light
notes: as for B1
Regarding B14, in assay [1], the affinity, expressed as Kd, was 10.2 nM; the koff amounted to 0.018 s⁻¹; the on-rate (kon) worked out at 1.76e+06 M⁻¹ s⁻¹.

B15: IgG with canine IgGB Fc variant N434H, A426F (antibody)
heavy: B1 heavy with M261L, A437F, N445H
light: B1 light
notes: as for B1
Turning to B15, in assay [1], the affinity, expressed as Kd, was 11.8 nM; the koff was determined as 0.0296 s⁻¹; the kon worked out at 2.5e+06 M⁻¹ s⁻¹. Further, binding in assay [2] was put at a Kd of 1380 nM. In assay [3], this molecule had a Kd of 11.8 nM, a dissociation rate constant (koff) of 0.0296 s⁻¹ and an association rate constant (kon) of 2.5e+06 M⁻¹ s⁻¹.

B16: IgG with canine IgGB Fc variant L252M, A426L (antibody)
heavy: B1 heavy with A437L
light: B1 light
notes: as for B1
In assay [1], B16 yielded a Kd of 102 nM, an off-rate constant (koff) of 0.111 s⁻¹ and an on-rate constant (kon) of 1.09e+06 M⁻¹ s⁻¹.

B17: IgG with canine IgGB Fc variant L252M, A426Y (antibody)
heavy: B1 heavy with A437Y
light: B1 light
notes: as for B1
Regarding B17, in assay [1], binding was characterised by a dissociation constant (Kd) of 57.4 nM, the dissociation rate constant (koff) came to 0.0581 s⁻¹ and the on-rate constant (kon) turned out to be 1.01e+06 M⁻¹ s⁻¹.

B18: IgG with canine IgGB Fc variant L252Y, A426L (antibody)
heavy: B1 heavy with M261Y, A437L
light: B1 light
notes: as for B1
Turning to B18, the Kd in assay [1] came to 6.41 nM; in assay [2] it was 713 nM; in assay [3], 6.41 nM. For the same molecule, the dissociation rate constant (koff) in assay [1] and in assay [3] was 0.012 s⁻¹ in each case. Also, the kon in assay [1] and in assay [3] was 1.87e+06 M⁻¹ s⁻¹ in each case.

B19: IgG with canine IgGB Fc variant N434H, A426W (antibody)
heavy: B1 heavy with M261L, A437W, N445H
light: B1 light
notes: as for B1
Turning to B19, in assay [1], the Kd stood at 14.5 nM, the koff was determined as 0.0406 s⁻¹ and the kon came to 2.79e+06 M⁻¹ s⁻¹. Moreover, in assay [2], the Kd was determined as 1790 nM. Also, in assay [3], binding was put at a Kd of 14.5 nM, the koff worked out at 0.0406 s⁻¹ and the kon is 2.79e+06 M⁻¹ s⁻¹.

B20: IgG with canine IgGB Fc variant L252M, T286L (antibody)
heavy: B1 heavy with T295L
light: B1 light
notes: as for B1
In assay [1], B20 gave a dissociation constant (Kd) of 90 nM, a koff of 0.111 s⁻¹ and a kon of 1.23e+06 M⁻¹ s⁻¹.

Source of the values: patent US20240209096A1 (INVETX, published 2024).
